Data as given in patent US20160348147.

Key:
[1] = biological target: T1, ELP-substrate fusion M(GVGVP)60GDGQVPMSMRGGDDEGQQDDEEGY
T1 chain: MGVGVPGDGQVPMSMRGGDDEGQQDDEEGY

[2] = biological target: T2, A4 construct M(YPSDGRGQ)40YGDGQVPMSMRGGDEGQQDDEEGY
T2 chain: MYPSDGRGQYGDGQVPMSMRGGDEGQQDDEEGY

[3] = biological target: T3, MSKGPGWGVG(VPGVG)60GDGQVPMSMRGGDDEGQQDDEE(VPGAGVPGGG)30YG fusion polypeptide
T3 chain: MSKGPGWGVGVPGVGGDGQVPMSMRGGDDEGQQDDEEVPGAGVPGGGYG

B1: Human MMP-1 catalytic domain (recombinant, produced in E. coli, 19.9 kDa) (protein)
chain: FVLTEGNPRWEQTHLTYRIENYTPDLPRADVDHAIEKAFQLWSNVTPLTFTKVSEGQADIMISFVRGDHRDNSPFDGPGGNLAHAFQPGPGIGGDAHFDEDERWTNNFREYNLHRVAAHELGHSLGLSHSTDIGALMYPSYTFSGDVQLAQDDIDGIQAIYGRSQNPVQP
[1]
  catalytic constant (kcat) from Lineweaver-Burke plot, SDS-PAGE densitometry, 20 ng/mL enzyme, 40 C: 8.0 ± 1.9 s⁻¹
  mass spectrometry of the polypeptide before and after incubation with 100 ng/mL MMP-1 for 2 h at 25 C: most of the 1.8 kDa MMP-sensitive peptide is cleaved off the 25.4 kDa ELP
  optical density at 350 nm and DLS particle size after 12 h with 100 ng/mL MMP-1 at 40 C: the optical density of the solution shows a dramatic increase as the solution is heated above the CMT to 45 °C
[2]
  transition temperature of 25 µM A4 before and after incubation with 25 ng/mL MMP-1 at 37 C: a change in transition temperature of A4 construct at 25 µM prior to (solid line) and after (dashed line) incubation with 25 ng/mL of MMP-1 enzyme
[3]
  optical density versus temperature before and after incubation with MMP-1: Incubation of these micelles with MMP-1 enzyme is shown to result in drastic changes in optical densities at the micelle-forming transition temperature
